Test results reported in the supplement of paper PMC9170038.

Tested on: K4 kissing-loop RNA reporter
Experiment: apparent KD of K4 kissing-loop reporter; higher = weaker reporter binding
Conditions: Eterna round: R107
Method: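 RNA-MaP round R107: designed RNA switches with theophylline, tryptophan, arginine or FMN aptamers are transcribed on-chip within common flanks. They are titrated with a labelled K4 kissing-loop RNA reporter in RNA-MaP buffer (100 mM Tris pH 7.5, 80 mM KCl, 4 mM MgCl2), without ligand or with the indicated ligand. Median apparent KD per design.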

[1] = input ligand: theophylline 20 uM
[2] = input ligand: tryptophan 2.4 mM
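Also: bound reporter read as fluorescence of individual clusters on recovered sequencing chips by microscopy, with normalized cluster intensities fitted with a binding model.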

Sequence	apparent KD of K4 kissing-loop reporter (input ligand: FMN 200 uM)	apparent KD of K4 kissing-loop reporter (input ligand: arginine 13.2 mM)	apparent KD of K4 kissing-loop reporter (input ligand: none)	apparent KD of K4 kissing-loop reporter [1]	apparent KD of K4 kissing-loop reporter [2]
UAGUCCUAGUGAUGGUUAUCACGUGGUGGGCGAGGACCGGUACGGCCGCCACUCGACUAUGCAGUGAUGUUGCAAUCCGGACAAU [Exclusion - Tryptophan A (Freestyle 16)]	319 nM	411 nM	423 nM	353 nM	116 nM
UUAUAUACGAGUGAUGUUCGUUAUUUAUCAGAGGAUAUGCUUAAAUGCAGAAGGCUGUUUUUCUAUUUGAUAUUAAAUUUUAUAA [JR_Nu3_ExcFMNA_Sub027]	81.6 nM	89.3 nM	69.6 nM	81.1 nM	58.1 nM
ACGUGCACCAGUGAUGUUGGAAAAUAUGAAGGAGCGGGAGAAAACCCAGGUAGGUCGCAUAAUUGCACGAGCCACGAAAGUGGCA [#15 K4 Arginine A Same State]	73.4 nM	93.7 nM	88.3 nM	145 nM	70.8 nM
GGAUAGGAAAGAGGAUAUGGGCUAGGCAAGAAUAACUUGUCUAGCAAAUCCAUGAGGAGUGAUGUUCCAGAAGGCUUUCCUAUCG [FmnBX 1 A9+U77]	995 nM	141 nM	160 nM	157 nM	126 nM
UUCUUGAUGGAAACAUCGAGAAUUACUGAUACCAGUAUCGAUAGAUACCCUUGGCAGCAGAAUCAGUAAUAACGAGUGAUGUUCG [Ex Theophylline A K4 4]	313 nM	254 nM	304 nM	321 nM	243 nM
UUAGAGAUCUCAGGAUAUCAGUGAUGUUGGUUUCCAGAUCUGAGAUAGAAUUCUAUCUCAGAUCAAUGAGAAGGGAGAUCUCAUU [AK4.1 Exc FMN B]	535 nM	128 nM	151 nM	132 nM	123 nM
AGGCACGAGCAAGGAUAUCGAGUAGAGUGAUGUUCUGCCUGGGUUGGCCCGUAAGGGCCUUCCCAGCGAGAAGGUGCUCGUGCCU [#2 Same State - FMN A Attempt #10 (HarryS)]	233 nM	505 nM	647 nM	679 nM	536 nM
CGAAGACUUAUGGAUACCAGCCUAGCAUCAGGUGGUUCAGAGGCAUGCAGUGAUGUUGCAGGCCCUUGGCAGCCAUGGUACUAGA [Xelebi]	76 nM	71.3 nM	70 nM	79.8 nM	79.7 nM
GGCACGGUGGCGCGACUGCCGUGCGCUUGGGAGGAUAUGUUUCGUGACAGAAGGCCCAGUGAUGUUGGGUCUGUUCAAAAGGACU [Gegearer]	359 nM	125 nM	127 nM	130 nM	112 nM
GGAUCCACCAGUGAUGUUGGAGAAAACUCCAAGGAUAUGACGAAAGUCAGAAGGUGGUAGACUGGACAAAGUCCGGUGGGAUCCA [FmnA10 G78]	661 nM	141 nM	392 nM	438 nM	88.7 nM
AGCAUUAUCAGAAGGAGCGUGUAUAAUUCAAGAGAAUUGUUUUCGAGUGAUGUUCGUAAUACACAGGUAGGUCGCUGAUAUAGCA [JR_ExcArginiB_Sub001]	224 nM	258 nM	257 nM	302 nM	221 nM
UGUGUACCGGGAAGGAGCGUGAAUGAUAAUGGAUAUAGUGAUGUUAUAUAUACGAACGAAUCGCAGGUAGGUCGCCCGGAUCCCU [SSArgB.X]	808 nM	494 nM	639 nM	559 nM	576 nM
AGUGAUGUUGAGUUAUGUUAGUGAAGUGAUCGAGGACCGGUACGGCCGCCACUCGAGUGAUGAGUGAGUGAUGUUUGUUUAGUGA [bvbmullin]	639 nM	487 nM	857 nM	692 nM	404 nM
GUGAGUGACGGAGGAUAUGCGAUAGAUGUAGGAAAAUUAGUGAUGUUAGUUAUGGUAGAGAUAGAAGUAGAAGGUUGGUGUGUGU [RHig 3/7]	551 nM	394 nM	561 nM	585 nM	395 nM
AAAAUAAAUCAGUGAUGUUGGUAUCUGGAUACCAGCGAUAAUCAUCGCCCUUGGCAGCCAUGGACGUACAAAAUAAGUACGUCCU [MatMod 17 - Jieux - Same State - Theophylline A]	242 nM	157 nM	180 nM	228 nM	193 nM
AAUGUAAUGACGGCCGCCACUGAUUACCAGUGAUGUUGGUAAAGAACUUUAUAAGUCCUGGAAACCAGGACCGGGUCAACGGUCC [Tryp B Ex t1]	345 nM	294 nM	318 nM	309 nM	258 nM
UCCGAGCUUAUUGAUACCAGUUCGGCGAGCUACUAGAGUGAUGUUCUUGUAAGCGUACACAACCCUUGGCAGCAAUAGAGGAGGU [theeternabot_sameState_KL_Theo_B_37]	157 nM	128 nM	135 nM	130 nM	135 nM
GGUUCCUCAGUGAUGUUGAGGUGACCUCGGCAGGAUAUAGGCAUUACUAGAAGGGCCAAAAGAACCCUGUGUAGCGACACAGGGA [Beerma]	150 nM	269 nM	329 nM	279 nM	299 nM
UGUCAUUGGUCGGCCGCCACUCCAUAAAGAGUGAUGUUCUAAAAGACGGAUCGAAAGAUCUGUCGGAGGACCGGGACCGAUGACU [FiskerMod 4 - Jieux - Same State - Tryptophan B]	1190 nM	555 nM	1090 nM	549 nM	243 nM
AGUGAUGUGGGAAGGAGCGGUAUAUGAGUUCAGUGAUGUUGAAGUGAUGCUGUAGUGUUGUGCCAGGUAGGUCGCCUAGAUGUUA [KL-XARG B25]	333 nM	254 nM	316 nM	226 nM	233 nM
UCGGACCCUGGAGGAUAUGAGUCGAGUGAUGUUCGGCGGUCCAUGCCGAUGCGGCGUUAUGCCCUUUUAGAAGGCCAGGGUCCGA [#2 Exclusion - FMN B Attempt #10 (HarryS)]	498 nM	216 nM	277 nM	268 nM	264 nM

Sequence	apparent KD of K4 kissing-loop reporter (input ligand: FMN 200 uM)	apparent KD of K4 kissing-loop reporter (input ligand: arginine 13.2 mM)	apparent KD of K4 kissing-loop reporter (input ligand: none)	apparent KD of K4 kissing-loop reporter [1]	apparent KD of K4 kissing-loop reporter [2]
AUGCAUGAAAGUGAUGUUUUCAGUAAUGGAAAGGAUAUGCGCUGGUGCAGAAGGUUCUAAAGUGCAUCCAACAACUGGGUAGGCC [theeternabot_sameState_KL_FMN_A_36]	218 nM	316 nM	322 nM	273 nM	310 nM
AUGCGACGUGCGGCCGCCACUCGGAUGCGAGUGAUGUUCGCGGGCCGGCCGCAAGGCCGGCAUUCGAGGACCGGGCAUCGGUGUA [#2 Same State - Tryptophan B Attempt #1 (HarryS)]	420 nM	496 nM	546 nM	493 nM	116 nM
GCCGUAGAUUGAAGGAGCGGUGAAUGCAGGUGAGUCCUUUAGAUGUUUAGUGAUGUUAAACACCAGGUAGGUCGCAAUCUACGGC	235 nM	178 nM	203 nM	200 nM	192 nM
AUUUAAUUAACUGAUACCAGACUUUUUGUUUUGAUAAUUACUAGUGAUGUUAGUGUUUCUGUCCCUUGGCAGCAGAAUCUACUUA [JR_ExcTheophyB_Sub018]	145 nM	280 nM	179 nM	347 nM	137 nM
CCUAUCUCAUACGAUACCAGUCAAUGAUCUUUGAUCAAUGCCAUCACCGAGUGAUGUUCGGACCCUUGGCAGCGUAUGGGAUAGG [whbob_Ex_Theo_B_sa102]	267 nM	212 nM	269 nM	364 nM	251 nM
UGUGAACAAAAGUAGAGUGGACCACUAUAGCGAGGACCGGUACGGCCGCCACUCGUGCAUGAAUUCAGUGAUGUUGAAAAGAGCU [whbob_EX_Tryp_A_t12]	258 nM	375 nM	330 nM	364 nM	185 nM
GCCCUCUUAACGGCCGCCACUAUAUUUAUGAUCUCUAGUAAGUGAUGUUUACUCCGGCUUAUAGGUAGGACCGGGUUAUUAUCUU [theeternabot_sameState_KL_Trp_B_39]	229 nM	336 nM	257 nM	302 nM	181 nM
AAUCUCGUCCUGGAUACCAGUCGCACGGUUUGUCAUGUCAGCCAGUGAUGUUGCCUGCAUGACCCUUGGCAGCCAUUCUAUGAAU [theeternabot_exclusion_KL_Theo_B_45]	284 nM	230 nM	311 nM	334 nM	246 nM
CGCAGUGAUGUUGCGAGUAGAUACAGGGAAGGAGCGCGGUAGUACGCAGGUAGGUCGCCCACGCAGUGAUGUUGCGUCAUAGGGU [Exclusion Arginine A GF6]	103 nM	93.1 nM	91 nM	98.6 nM	95.7 nM
AAGUACACGAUAGUGUACACCUAGUGAUGUUAGGAUAUGCAGAUAUGCAGAAGGAACGAGUCAUCUGACAAUAGUCGGAUGACAA [FmnAX 8 #OpenEnded #K4Early]	564 nM	70.2 nM	100 nM	103 nM	82.4 nM
GGUCGAGUGAUGUUCGAUGUUAUGCAUUCAGAGGAUAUAGGAUUAGCUAGAAGGCUGAAUCAAUCUUCGAGUGAUGUUCGAGGAU [Same State FMN A GF 9]	133 nM	108 nM	115 nM	123 nM	112 nM
UGUACCGAGUCAGGAUAUCAUAAUAAAUGCAGUGAUGUUGCAAUAACCAGUACAAAAGUGCUGGAUUGAGAAGGGACUUGGUACU [FmnBS 5 #SwitchBubble #StaticStem]	99 nM	126 nM	126 nM	119 nM	112 nM
AAACAUUGGUCGGAUACCAGUUAGACCGAUAGGUCAAAACUGGAGUGAUGUUCCUAAAAUAACCCUUGGCAGCCGACCGAUGAAA [MAT - Same State Theophlline B - Mod of Eli - D5]	954 nM	599 nM	787 nM	905 nM	808 nM
CUAGGUAACACAGGAUAUGUCCGAGUGAUGUUCGAGCCUUUCCAUUGACGAAAUUAAUGGUGGGUGACAGAAGGGUGAGUACUGA [Uses]	457 nM	640 nM	1090 nM	640 nM	828 nM
GCAUCCUAGUCGGCCGCCACUAACAUGAGUGAUGUUCAUGUACGUCAGUGAUGUUGACGUAGUUAUAGGACCGGGACUAGGAUGC [KL-SSTryp-B7 Brourdwalk3]	146 nM	119 nM	137 nM	118 nM	120 nM
GGAUGGUAGGCGGCCGCCACUAAAACUGAACACAUACAAGCCAGUGAUGUUGGUAUGAUGAAGUAUAGGACCGGGCCUAGAUAGA [Exclusion - Tryptophan B (Freestyle 3)]	446 nM	384 nM	422 nM	502 nM	469 nM
AGUAAUGUCACGGCCGCCACUCUUUAUUGUUUUUAUAGUUAUAAAUCUUGCCAGUGAUGUUGGUAGAGGACCGGGUGACUUAAUA [#26 K4 Tryptophan B Same State]	222 nM	208 nM	245 nM	199 nM	194 nM
GUGCAGUGAUGUUGCACGAGGAAAGACGAUACCAGCCGUAAAUAAGGCCCUUGGCAGCGUGGGCUAGCAUAAAGCAUGCUAGUCU [Edbemavela]	126 nM	97.7 nM	113 nM	111 nM	99.6 nM
UGACUGGAUGGAAGGAGCGCUAAACUCCUAGUGAUGUUAGGGAAACGAGACAAAGUCUCGAGGCAGGUAGGUCGCCAUCUAGUCU [FiskerMod 15 - Jieux - Same State - Arginine B]	183 nM	139 nM	168 nM	165 nM	155 nM
GAUACCACGUUAGAUACCAGCUUCGUUGACUUGGGUAGUAGUCGAACUUCAGUGAUGUUGAGCCCUUGGCAGCUACAGAUGUGCG [theeternabot_exclusion_KL_Theo_B_38]	657 nM	311 nM	654 nM	588 nM	624 nM
AAUCAAUACAGAAGGAGCGUGACAGUUGCGAGUGUAAUUUUAGCUAGUGAUGUUAGCAUUUCACAGGUAGGUCGCUGUACAUUUA [#05 K4 Arginine B Same State]	115 nM	134 nM	133 nM	140 nM	105 nM
